According to US6875851B1 (priority 1999, dated 2005):

B1: α1-antichymotrypsin: Human plasma inhibitor (protein)
chain: HPNSPLDEENLTQENQDRGTHVDLGLASANVDFAFSLYKQLVLKAPDKNVIFSPLSISTALAFLSLGAHNTTLTEILKGLKFNLTETSEAEIHQSFQHLLRTLNQSSDELQLSMGNAMFVKEQLSLLDRFTEDAKRLYGSEAFATDFQDSAAAKKLINDYVKNGTRGKITDLIKDLDSQTMMVLVNYIFFKAKWEMPFDPQDTHQSRFYLSKKKWVMVPMMSLHHLTIPYFRDEELSCTVVELKYTGNASALFILPDQDKMEEVEAMLLPETLKRWRDSLEFREIGELYLPKFSISRDYNLNDILLQLGIEEAFTSKADLSGITGARNLAVSQVVHKAVLDVFEEGTEASAATAVKITLLSALVETRTIVRFNRPFLMIIVPTDTQNIFFMSKVTNPKQA
B2: α2-macroglobulin: Human plasma inhibitor (protein)
chain: SVSGKPQYMVLVPSLLHTETTEKGCVLLSYLNETVTVSASLESVRGNRSLFTDLEAENDVLHCVAFAVPKSSSNEEVMFLTVQVKGPTQEFKKRTTVMVKNEDSLVFVQTDKSIYKPGQTVKFRVVSMDENFHPLNELIPLVYIQDPKGNRIAQWQSFQLEGGLKQFSFPLSSEPFQGSYKVVVQKKSGGRTEHPFTVEEFVLPKFEVQVTVPKIITILEEEMNVSVCGLYTYGKPVPGHVTVSICRKYSDASDCHGEDSQAFCEKFSGQLNSHGCFYQQVKTKVFQLKRKEYEMKLHTEAQIQEEGTVVELTGRQSSEITRTITKLSFVKVDSHFRQGIPFFGQVRLVDGKGVPIPNKVIFIRGNEANYYSNATTDEHGLVQFSINTTNVMGTSLTVRVNYKDRSPCYGYQWVSEEHEEAHHTAYLVFSPSKSFVHLEPMSHELPCGHTQTVQAHYILNGGTLLGLKKLSFYYLIMAKGGIVRTGTHGLLVKQEDMKGHFSISIPVKSDIAPVARLLIYAVLPTGDVIGDSAKYDVENCLANKVDLSFSPSQSLPASHAHLRVTAAPQSVCALRAVDQSVLLMKPDAELSASSVYNLLPEKDLTGFPGPLNDQDNEDCINRHNVYINGITYTPVSSTNEKDMYSFLEDMGLKAFTNSKIRKPKMCPQLQQYEMHGPEGLRVGFYESDVMGRGHARLVHVEEPHTETVRKYFPETWIWDLVVVNSAGVAEVGVTVPDTITEWKAGAFCLSEDAGLGISSTASLRAFQPFFVELTMPYSVIRGEAFTLKATVLNYLPKCIRVSVQLEASPAFLAVPVEKEQAPHCICANGRQTVSWAVTPKSLGNVNFTVSAEALESQELCGTEVPSVPEHGRKDTVIKPLLVEPEGLEKETTFNSLLCPSGGEVSEELSLKLPPNVVEESARASVSVLGDILGSAMQNTQNLLQMPYGCGEQNMVLFAPNIYVLDYLNETQQLTPEIKSKAIGYLNTGYQRQLNYKHYDGSYSTFGERYGRNQGNTWLTAFVLKTFAQARAYIFIDEAHITQALIWLSQRQKDNGCFRSSGSLLNNAIKGGVEDEVTLSAYITIALLEIPLTVTHPVVRNALFCLESAWKTAQEGDHGSHVYTKALLAYAFALAGNQDKRKEVLKSLNEEAVKKDNSVHWERPQKPKAPVGHFYEPQAPSAEVEMTSYVLLAYLTAQPAPTSEDLTSATNIVKWITKQQNAQGGFSSTQDTVVALHALSKYGAATFTRTGKAAQVTIQSSGTFSSKFQVDNNNRLLLQQVSLPELPGEYSMKVTGEGCVYLQTSLKYNILPEKEEFPFALGVQTLPQTCDEPKAHTSFQISLSVSYTGSRSASNMAIVDVKMVSGFIPLKPTVKMLERSNHVSRTEVSSNHVLIYLDKVSNQTLSLFFTVLQDVPVRDLKPAIVKVYDYYETDEFAIAEYNAPCSKDLGNA
B3: PTP-A: prolyl-tripeptidyl peptidase A (SEQ ID NO:30) from P. gingivalis (protein, listed as Porphyromonas gingivalis)
chain: MKKTIFQQLFLSVCALTVALPCSAQSPETSGKEFTLEQLMPGGKEFYNFYPEYVVGLQWMGDNYVFIEGDDLVFNKANGKSAQTTRFSAADLNALMPEGCKFQTTDAFPSFRTLDAGRGLVVLFTQGGLVGFDMLARKVTYLFDTNEETASLDFSPVGDRVAYVRNHNLYIARGGKLGEGMSRAIAVTIDGTETLVYGQAVHQREFGIEKGTFWSPKGSCLAFYRMDQSMVKPTPIVDYHPLEAESKPLYYPMAGTPSHHVTVGIYHLATGKTVYLQTGEPKEKFLTNLSWSPDENILYVAEVNRAQNECKVNAYDAETGRFVRTLFVETDKHYVEPLHPLTFLPGSNNQFIWQSRRDGWNHLYLYDTTGRLIRQVTKGEWEVTNFAGFDPKGTRLYFESTEASPLERHFYCIDIKGGKTKDLTPESGMHRTQLSPDGSAIIDIFQSPTVPRKVTVTNIGKGSHTLLEAKNPDTGYAMPEIRTGTIMAADGQTPLYYKLTMPLHFDPAKKYPVIVYVYGGPHAQLVTKTWRSSVGGWDIYMAQKGYAVFTVDSRGSANRGAAFEQVIHRRLGQTEMADQMCGVDFLKSQSWVDADRIGVHGWSYGGFMTTNLMLTHGDVFKVGVAGGPVIDWNRYEIMYGERYFDAPQENPEGYDAANLLKRAGDLKGRLMLIHGAIDPVVVWQHSLLFLDACVKARTYPDYYVYPSHEHNVMGPDRVHLYETITRYFTDHL
B4: human cystatin C: protein substrate, provided by Dr. Magnus Abrahamson (protein)
chain: SSPGKPPRLVGGPMDASVEEEGVRRALDFAVGEYNKASNDMYHSRALQVVRARKQIVAGVNYFLDVELGRTTCTKTQPNLDNCPFHDQPHLKRKAFCSFQIYAVPWQGTMTLSKSTCQDA

Legend:
PTP-A [1] = format: biochemical, P. gingivalis
PTP-A [2] = format: biochemical, P. gingivalis; remark: listed apart in the source
[3] = pH optimum and stability of PTP-A by amidolytic activity assay; format: physicochemical, P. gingivalis; conditions: 0.2 M HEPES
Description: Enzyme Activity Assays—Routinely, the tripeptidyl peptidase amidolytic activity was measured with H-Ala-Phe-Pro-pNA (1 mM) in 0.2 M HEPES (N-2-hydroxyethylpeperazine,N′-2-ethansulfonic acid), pH 7.5 at 37° C. The concentration of enzyme was 0.1 nM to 1 nM. The assay was performed in a total volume of 0.2 ml on microplates, and the initial turnover rate was recorded at 405 nm using a microplate reader (Spectramax Molecular Devices, Sunnyvale, Calif.). In inhibition studies, the enzyme was first preincubated with inhibitor for 15 min at 37° C., substrate added, and residual activity recorded after 5 minutes to 30 minutes. H-Gly-Pro-pNA, Z-Ala-Pro-pNA, Z-Gly-Pro-pNA and H-Pro-pNA (1 mM final concentration) were assayed in the same manner.
PTP-A activity was not affected by class specific synthetic inhibitors of cysteine or metalloproteinases (Table 2).

Molecule	Effect on PTP-A amidolytic activity (in words) (PTP-A [1])	Cleavage of protein by PTP-A (in words) (PTP-A [2])	Stability (time stable) ([3]; pH 7.6, 25° C.)	Stability (time stable) ([3]; pH 7.6, 37° C.)
B1	did not affect the enzyme activity	nor were they cleaved by PTP-A	–	–
B2	did not affect the enzyme activity	nor were they cleaved by PTP-A	–	–
B3	–	–	at least 12 hours	at least 12 hours
B4	–	able to cleave a tripeptide	–	–
